# Results from paper PMC1326212, “Dimerization and enzymatic activity of fungal 17β-hydroxysteroid dehydrogenase from the short-chain dehydrogenase/reductase superfamily” (BMC Biochemistry, 2005).
# B1: 17β-hydroxysteroid dehydrogenase from Cochliobolus lunatus, wild type (enzyme, UniProt O93874 1-270, looked up)
# chain: MPHVENASETYIPGRLDGKVALVTGSGRGIGAAVAVHLGRLGAKVVVNYANSTKDAEKVVSEIKALGSDAIAIKADIRQVPEIVKLFDQAVAHFGHLDIAVSNSGVVSFGHLKDVTEEEFDRVFSLNTRGQFFVAREAYRHLTEGGRIVLTSSNTSKDFSVPKHSLYSGSKGAVDSFVRIFSKDCGDKKITVNAVAPGGTVTDMFHEVSHHYIPNGTSYTAEQRQQMAAHASPLHRNGWPQDVANVVGFLVSKEGEWVNGKVLTLDGGAA
# notes: expected molecular mass 28 kDa; also called 17β-HSDcl; fungal 17β-HSD; source: E. coli JM107, GST fusion, purified (Glutathione Sepharose, thrombin cleavage)
# Columns and labels:
# [1] = target: 17β-HSD type 1 (Homo sapiens) (UniProt P14061); details: cited from earlier work
# [2] = system: NC(=O)C1=CN([C@@H]2O[C@H](COP(=O)(O)OP(=O)(O)OC[C@H]3O[C@@H](n4cnc5c(N)ncnc54)[C@H](OP(=O)(O)O)[C@@H]3O)[C@@H](O)[C@H]2O)C=CC1; experiment: purified protein; assay type: biochemical, Curvularia lunata; details: reduction of 4-estrene-3,17-dione (100 μM), 100 mM phosphate pH 8.0, 25°C, 1% DMF, varied: cofactor
# [3] = system: NC(=O)c1ccc[n+]([C@@H]2O[C@H](COP(=O)(O)OP(=O)(O)OC[C@H]3O[C@@H](n4cnc5c(N)ncnc54)[C@H](OP(=O)(O)O)[C@@H]3O)[C@@H](O)[C@H]2O)c1; experiment: purified protein; assay type: biochemical, Curvularia lunata; details: oxidation of 4-estrene-17β-ol-3-one (100 μM), 100 mM phosphate pH 8.0, 25°C, 1% DMF, varied: cofactor
# [4] = target: 17β-HSDcl-His111Ala (Cochliobolus lunatus); experiment: SEC; gel filtration on TSK G4000 SWxl, 100 mM phosphate buffer with 150 mM NaCl, pH 7.0; about 40 μg protein in 100 μl injected, 1.0 ml/min; mass by calibration standards
# 17β-HSDcl [5] = target: T1, 17β-HSDcl (Curvularia lunata, UniProt O93874, H111A); experiment: intrinsic fluorescence quenching titration; assay type: binding
# T1 construct: gene 17HSDcl; GST fusion (pGex-17β-HSDcl) from E. coli JM107, GST cut off with thrombin; 28 kDa subunit; wild type and H111A homodimeric, H111L and R129D monomeric
# Excerpt: (§1) intrinsic fluorescence quenching titration on 17β-HSDcl
# 17β-HSDcl [6] = target: T2, 17β-HSDcl (Curvularia lunata, UniProt O93874, H111L); experiment: intrinsic fluorescence quenching titration; assay type: binding
# T2 construct: gene 17HSDcl; GST fusion (pGex-17β-HSDcl) from E. coli JM107, GST cut off with thrombin; 28 kDa subunit; wild type and H111A homodimeric, H111L and R129D monomeric
# Excerpt: as §1
# 17β-HSDcl [7] = target: T3, 17β-HSDcl (Curvularia lunata, UniProt O93874, R129D); experiment: intrinsic fluorescence quenching titration; assay type: binding
# T3 construct: gene 17HSDcl; GST fusion (pGex-17β-HSDcl) from E. coli JM107, GST cut off with thrombin; 28 kDa subunit; wild type and H111A homodimeric, H111L and R129D monomeric
# Excerpt: as §1
# [8] = target: the molecule itself; experiment: SEC; gel filtration on TSK G4000 SWxl, 100 mM phosphate buffer with 150 mM NaCl, pH 7.0; about 40 μg protein in 100 μl injected, 1.0 ml/min; mass by calibration standards
molecule,measurement,setting,value
17β-HSD type 1 (from UniProt P14061),Kd,[1],< 5 pM
17β-HSDcl (Curvularia lunata; H111A),Km,[2],50.6 µM
same,kcat,[2],2.4 s⁻¹
same,kcat/Km,[2],47000 M⁻¹ s⁻¹
same,Km,[3],4.6 µM
same,kcat,[3],0.9 s⁻¹
same,kcat/Km,[3],190000 M⁻¹ s⁻¹
17β-HSDcl-His111Ala (enzyme),stoichiometry N,[4],2
NC(=O)c1ccc[n+]([C@@H]2O[C@H](COP(=O)(O)OP(=O)(O)OC[C@H]3O[C@@H](n4cnc5c(N)ncnc54)[C@H](OP(=O)(O)O)[C@@H]3O)[C@@H](O)[C@H]2O)c1 [NADP^+],Kd,17β-HSDcl [5],5.8 µM
same,Kd,17β-HSDcl [6],19.9 µM
same,Kd,17β-HSDcl [7],12.8 µM
B1,stoichiometry N,[8],2
